{
  "source": "patent US20210277441A1",
  "about": "“METHOD OF SELECTING A POLYPEPTIDE OF INTEREST” (IMPERIAL COLLEGE INNOVATIONS LIMITED, priority 2018, published 2021)",
  "key": {"[1]": {"system": "LS1 strain (ΔadhE ΔldhA double mutant) cells", "experiment": "Metabolic complementation (anaerobic growth recovery) of LS1/AL strain", "assay_type": "cell-based, Escherichia coli", "settings": "media supplemented with 2-methylpyrroline", "protocol": "The LS1 mutant strain and the parental BW25113 strain were transformed with the desired plasmid and overnight pre-cultures were grown aerobically in 15 mL Falcon tubes with M9 media (0.4% glucose). These pre-cultures were used to inoculate 10 mL Hungate tubes with M9 medium (0.4% glucose) supplemented with 100 μg/mL ampicillin, 1 mM IPTG and with or without the specific substrate of the dehydrogenase under anaerobic conditions at 37° C. Metabolic complementation was assessed by measuring the optical density at 600 nm every two hours during daytime."}, "AL cells": {"system": "AL cells", "experiment": "1H NMR analysis of fermentation broth of anaerobic cultures", "assay_type": "cell-based, Escherichia coli", "design": "Substrate concentration: unit not given here", "settings": "exogenous substrate 2-methyl-1-pyrroline"}, "[2]": {"experiment": "Kinetics of evolved and parental enzymes, 2-methylpyrroline as variable substrate", "assay_type": "biochemical", "settings": "reductase activity towards 2-methylpyrroline"}},
  "data": [
    {"molecule": "MsIRED-s: MsIRED variant with N32E, R33V, T34R and K37R, NADH-dependent (protein, variant of Myxococcus stipitatus imine reductase, MsIRED variant with N32E, R33V, T34R and K37R, NADH-dependent) MKPTLTVIGAGRMGSALIKAFLQSGYTTTVWEVRKARSEPLAKLGAHLADTVRDAVKRSDIIVVNVLDYDTSDQLLRQDEVTRELRGKLLVQLTSGSPALAREQETWARQHGIDYLDGAIMATPDFIGQAECALLYSGSAALFEKHRAVLNVLGGATSHVGEDVGHASALDSALLFQMWGTLFGTLQALAISRAEGIPLEKTTAFIKLTEPVTQGAVADVLTRVQQNRLTADAQTLASLEAHNVAFQHLLALCEERNIHRGVADAMYSVIREAVKAGHGKDDFAILTRFLK", "values": [
      {"measurement": "anaerobic growth compared with best variant of previous studies", "setting": "[1]", "result": "more efficiently"},
      {"measurement": "Acetate concentration", "setting": "AL cells", "result": 15.9},
      {"measurement": "Ethanol concentration", "setting": "AL cells", "result": 0},
      {"measurement": "Formate concentration", "setting": "AL cells", "result": 12.8},
      {"measurement": "Lactate concentration", "setting": "AL cells", "result": 0},
      {"measurement": "Substrate concentration", "setting": "AL cells", "result": 0.8},
      {"measurement": "Succinate concentration", "setting": "AL cells", "result": 2},
      {"measurement": "Product concentration", "setting": "AL cells; product 2-methylpyrrolidine", "result": 13.4},
      {"measurement": "activity with NADPH", "setting": "[2]", "result": "no activity was detected"}
    ]}
  ]
}
